Data as given in the supplement of paper PMC12636428.

Test system: Saccharomyces cerevisiae
Test: transcriptional activation domain activity (GFP:mCherry ratio, weighted mean of sorted bins, harmonized to initial dataset scale) (arbitrary fluorescence ratio units); higher = stronger transcriptional activation
Conditions: beta-estradiol 1 µM; induction time 4 h
Procedure, shortened: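 Barcoded protein tiles fused to an estradiol-inducible synthetic transcription factor were integrated at the yeast URA3 locus, in diploids carrying a GFP reporter. Cultures were diluted 1:5 into SC with 1 uM beta-estradiol, held 4 hours at 30 °C, sorted into 8 bins by GFP:mCherry ratio, and barcodes sequenced. Tiles under 50 reads were discarded. Activation activity is the read-weighted mean of bin median fluorescence, averaged across barcodes, then linearly mapped onto the initial dataset scale.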

| Sequence | transcriptional activation domain activity |
| --- | --- |
| MSNTYRFVMEEPAEAGKGQQKKRARLVTACDNCRNKKIKCLRTPVSGTCESCK | 27900 |
| FISVYVPNFFVAFCLEMSQFFYLYQFMVMWLYYYWNYYVIGVIDTAIILVSAI | 47100 |
| QCGLICTLYFANRYGIILGSLPFALQPFIHWTSKGWCLIFRIYLLIYASFVLL | 43200 |
| SSFFFFSFFPGPFLLLYLWICLYPFFLFLGHPFSLGFFLLNYLLFSTATLVAG | 36200 |
| VKGAGKGKGKDDGKKNSMVLLLLCSLLSVNFMLGNYAPQLWILLLVPMSLAAP | 45000 |
| VIHLMNMGQVSILFIHRFIYGVVPLFEIVSCSFWPLLVSLWHLDYILIYLIMF | 46300 |
| EVMKIMPVQKQTRAGQRTRFKAFVVIGDSEGHVGLGVKCAKEVATAIRGAIIL | 56900 |
| SKAGLILVIRRQGNEIICGAYRNLGFKMLWKLYVKSLFDVMGQWHEVYATSKP | 64000 |
| IRCAKGFKSTDETKIFKTGQGGMKGNMYVTLSWNRWGKLLWATRIITRDFNPV | 46000 |
| LWQYMEFRILVYIFFGLSFIPLSIFLLFCTCLSSFIFFVAAGIWLFVGTIAFF | 54200 |
| KHLEAADGVEDDHRSTVIDQGNDELLVKWASDEGIIEKKPQGRFRLILGGGAS | 70100 |
| IMTLFYSAQRHLNKLILATKIAAGVWPPPDAMAQLRFQIGQLLIFMQTFVSQC | 67400 |
| PAAGGFGATSTPAPAAGGFGGFGATAAAAKPAVGGFGGLGGGASAAPATTLTS | 23300 |
| ILALNLSCFDTLCYCYGFWSRLFFYLLLLLMHHLHYHAIQNQSLDLFALHIYR | 78000 |
| MEGMQVEQDIARGSRKPHRKSRLGCGNCKQRRVKCDERKPSCDRCVKHNILCD | 23800 |
| MLLLKCSLSWIIRKGIYRAKSVMYLWVVANECCSLSMAEWLFLHQSVCSICQC | 58100 |
| EKPKPEESPKGRGKSSGEPAPIPPSNGAADSKPSSAGAGNGSGSGSGDGGRKG | 39800 |
| ILLYHPNFLLIAISILYIIWCFMVLIMFCVVLPTAFLLLRAALFYPPHGREFI | 25900 |
| DSNILAILPAVVYLQHSCYCLYFFYLYCFCLFLMSIDVAILYCLLYKIIPLFH | 43400 |
| RPPPRPPPQTPASPSPSPTSTTPPRSPSASRASPARPHPPSGRRTRTTRAPRR | 56300 |
| EKQKKKRKRGKRRRRRRNEKEEKEGEEEEEEKQEAKEEAKEEAKEEAKKKEKK | 24600 |

| Sequence | transcriptional activation domain activity |
| --- | --- |
| IISGAGSNMERELFYCLQNVRFRGPLLRVILLVLKACWLLKNLWVYWLIVYHR | 45800 |
| ATADRDGEREAQEVVATTVVHCHGLFGKTYISIIRAFHVLIVKHSLARLPKKI | 60700 |
| MSLFSPSPSLSLYNFKIRFCILLVPLILAFLFLIILISYCLSLFICFSSSLWF | 54700 |
| MHILVELAVFLICRCSQIWRTWVQGGKLAISHNKLVRPTFFRRLLHCIWLFRL | 72200 |
| FIRSQLGSVMPTIALSLMKDVLFRLEQLFLNRECHEWPVALAVLIIVLMTIES | 52800 |
| ILQCIQYFANFRRDSAWMKLIVWLLFLSFPGLFGLLPHFFVYRFLDTLHVLLI | 68900 |
| VFYGSNYFFICAISYVKGLGFCISDSFRYSWMSISPYWMIFMVVCNILPAILI | 63900 |
| EMIMGFFFKNIVWTLTLFWYQIFCQFNGSMMFDYALVTLFNLVFTSLPIMCMG | 52100 |
| MEYLIGHMEIYSVHFLHFCFFLRFLIFFFPLFFFFSYFSFHSYIYTFFFLEII | 31800 |
| IRLLFVWIVCTRIVLASRSACGRCYRSYLAMRSRSGWRWVSRRTAAVLVLRWC | 61500 |
| YPNLSGNTFICSSRGSITGRMTVSGDDFIASQYDYSYSHVWRNLGILIAFWIF | 53500 |
| MQMKMSESMSILILMLIMLELGWDVVDPCFFFTPFTPFPILPSFLPSFFFLFL | 54500 |
| FWPWTFWPWIFWTFGLFGLGLFGLGLFGFFGLFGPLDFLDFLDFLALDFLDFL | 37000 |
| TLHVCFVEMRLADVVVDFLSRCSATINLAFFDTRLWHPNLLPILGALPLQRLS | 87200 |
| RKHMMAFYFDDILEKVVGTATMDERGVFIRDNERGILWCLLVFRMLCWLILHD | 58000 |
| ASKEGEREKEGGREKEGNEGKKEGDKEEGEKKEGTDKEEEEKGGEKGKGSGEE | 47900 |
| IDGIDLEEAGNFREIETYYRDYLSPIDRLSIISVQENNVIFQDKGNVSRENIE | 73100 |
| LFLFLFLIFFSFLKCTFTYIFVPRFRFSLFSHSGPAVSLVYILGLLGYWGVNV | 55100 |
| VYKRKILVLIYKIAHLTDLYLEVANGGPKLRLHLSALSFHTCAWKSKGLSIPE | 35900 |
| VPGEVTEAEANGEAPKAEDGAEDGEAAKPKKKKKSKAARKAKKAAAASTEDGA | 21600 |
| MDGLFFFFFPFFFLFITLPTNFILFLIVGGSSSSLFFFFGFWFLVWFGLVYLC | 27600 |

| Sequence | transcriptional activation domain activity |
| --- | --- |
| WLILIRIINPIIMYFFVSCFYSLLSLAFQVPFNRFYGSSGFVIYWMMSWMAMC | 47100 |
| PRQPRERKPRAEGEEGEHVEGQQEAGERRRERRPRKPRNKSAGGAGAGAEGAA | 17100 |
| SRVVYRDGRRHHYCVTSFDVLSSGILYIICGALDNIWLVTIERVVLSIMACRV | 81500 |
| TEETPHDLPKNTAKGRDEEDFPLDYFPVSVEYPTEENAFDPFPPQAFTPAAPS | 42500 |
| MLMVLFSIFSTMPSPVYIIILFPSFLTFFFRYILSTVLGLWTFAFHLIPNSCW | 65200 |
| EGEYKTLATDDLGNILNLNYGETNEVIMNEINDLNLPLGPLSDEKSVKVSTFS | 84800 |
| FSLAGSNYLGICWNPAVKNCIPYDTYLLWIRCMPFWYLFVFLYDIIPPILIVY | 59800 |
| FCYVVVLGRVLIRFGGYQVLTLWRSCMRRLPKLGDSIWSRVFLRCVSCMSLFL | 62000 |
| SNGTNNSGNMNTNADYESFFNTGTNNSNSNQNPYFLSSRNNSLKFNPEDFDFQ | 59100 |
| KKKSKKRKEKKEKKRRSKSKKKGKKKRRSRSNSGSSSDSSSEDSSSSSSDSSD | 50500 |
| MTLLLLLLLLLFSYNFTYIYLFFLLLSFHLCVSLYTTFTLNFIFLYTSLYILD | 74200 |
| LNRWQKLLSWDVAYQIEGMLRRLLVDVKEMLSLMARIRAMILRYDSHYTAAFL | 71500 |
| SRLTHVLLCYRQSLLVTVYSHLLLLDQSSQVWWRWMSIFFTLIMWSIELLISS | 57600 |
| GGISKGENAHNFQNDTKKNMSTSNLFPFSFSNTDLTALFTHPEGPNCTNTNNG | 56600 |
| SLTQLIWYLLRRRPFTVLQLNHLFGLPDPLRILHLASSRRLWNAIPVITIATL | 54600 |
| LGSLTFLDNAFQLDLEFLLSSNMTMPSPLDTCFDFLFPFTQMPSLEPCTFPPV | 138000 |
| FMHYYRRDRRHLKFLVLLVLFLSTCHFGLYVLTIFRVFVTMHSVVIPSHQVPW | 63000 |
| VMHALWNRWIFFNRSLFLGNQHEGVRAFITEYWRMIRLAAGWDVLRWWLLILC | 51800 |
| VPPRSLCFLPSFSILTYILLIFSHLAVCPRPGPPSSSPVSIVLLLFFLRPYLL | 67500 |
